Data taken from patent US20250289873A1 (published 2025).
Read-outs that look alike come from different tables or passages of the source.

Tests used:
hCFHR4b = target: T1, hCFHR4b; assay: SPR kinetics
T1 chain: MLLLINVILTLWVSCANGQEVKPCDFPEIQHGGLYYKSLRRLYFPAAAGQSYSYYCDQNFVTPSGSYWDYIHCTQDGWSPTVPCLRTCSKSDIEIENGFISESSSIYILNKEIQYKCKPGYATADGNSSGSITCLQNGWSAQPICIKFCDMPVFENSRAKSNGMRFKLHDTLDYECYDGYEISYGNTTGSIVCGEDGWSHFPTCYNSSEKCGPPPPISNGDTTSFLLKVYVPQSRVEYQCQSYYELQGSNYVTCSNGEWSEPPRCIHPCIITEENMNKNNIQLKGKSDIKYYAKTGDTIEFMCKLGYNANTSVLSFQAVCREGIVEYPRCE

hCFHR4 = assay: SPR kinetics
[1] = target: T2, FHR-4 (coated on plate, C3 convertase assembly assay) (UniProt Q92496 20-331); assay: C3 convertase assembly assay
T2 chain: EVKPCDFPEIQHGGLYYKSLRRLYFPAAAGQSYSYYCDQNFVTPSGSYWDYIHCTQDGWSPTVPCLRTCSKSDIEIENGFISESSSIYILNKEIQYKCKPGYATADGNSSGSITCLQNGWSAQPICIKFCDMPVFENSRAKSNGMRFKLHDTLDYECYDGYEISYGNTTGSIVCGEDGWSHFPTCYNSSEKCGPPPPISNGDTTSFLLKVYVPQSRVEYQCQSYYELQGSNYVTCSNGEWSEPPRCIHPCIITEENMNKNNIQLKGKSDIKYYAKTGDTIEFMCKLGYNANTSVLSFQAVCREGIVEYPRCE

[2] = target: T2, FHR-4 (coated on plate, C3 convertase …); assay: C3 convertase assembly assay

Kd (hCFHR4b): 1.44 nM
Kd (hCFHR4): 1.44 nM
IC50 [1]: 12.1 nM
IC50 [2]: 12 nM
B1: ATX-P-569 (antibody, V domains shown)
VH: EVQLVESGGGLAQFGRSLRLSCAASGFTFDDYAMHWLRQAPGMGLEWVSGISWNSGSIGYADSVKGRFTIARDNAKNSVHLQMNSLRAEDTALYYCAKDIGNGYTKGDVFDIWGQGTMVTVSS
VL: DIQMTQSPSTLSASVGDSVTITCRASQNIITWLAWYQQKPGKAPNLLIYKASSLESGVPSRFSGSGSGTEFTLTISSLQPDDFATYYCQQYSSYSYTFGQGTKLEIKR
